Data: publication PMC10066039, “Bile salt hydrolases shape the bile acid landscape and restrict Clostridioides difficile growth in the murine gut” (Nature Microbiology, 2023)

Key:
Assay in all cases: crystal structure; crystals grown at 20 °C by sitting drop vapour diffusion (LgasBSHa with taurine and CDCA: hanging drop); data at 100 K; molecular replacement with PDB 2HEZ; homo-tetramer in the crystal structure
LreuBSH = target: LreuBSH
[1] = target: LgasBSHb (Lactobacillus gasseri)
[2] = target: LjohBSHc (johnsonii (cluster johnsonii_1, Lactobacillaceae))
LaciBSHa = target: LaciBSHa
LingBSH = target: LingBSH
[3] = target: the molecule itself

## LreuBSH (from UniProt A0A805Z5R7 1-316) (enzyme)
LreuBSH
  stoichiometry N: 4

## LgasBSHb (from UniProt A0A805Z5R7 1-316) (enzyme)
[1]
  stoichiometry N: 4

## LjohBSHc (from UniProt A0A805Z5R7 1-316) (enzyme)
[2]
  stoichiometry N: 4

## LaciBSHa (from UniProt A0A805Z5R7 1-316) (enzyme)
LaciBSHa
  stoichiometry N: 4

## LingBSH (from UniProt A0A805Z5R7 1-316) (enzyme)
LingBSH
  stoichiometry N: 4

B1: LgasBSHa (enzyme, Lactobacillus gasseri, UniProt A0A805Z5R7 1-316, looked up)
chain: MCTGLRFTDDQGNLYFGRNLDVGQDYGEGVIITPRNYPLPYKFLDNTTTKKAVIGMGIVVDGYPSYFDCFNEDGLGIAGLNFPHFAKFSDGPIDGKINLASYEIMLWVTQNFTKVSDVKEALKNVNLVNEAINSSFAVAPLHWIISDKDEAIIVEVSKQYGMKVFDDKLGVLTNSPDFNWHLTNLGNYTGLDPHDATAQSWNGQKVAPWGVGTGSLGLPGDSIPADRFVKAAYLNVNYPTVKGEKANVAKFFNILKSVAMIKGSVVNKLGSDEYTVYTACYSAATKTYYCNFENDFELKTYKLDDETMNADKLITY
notes: bile salt hydrolase LgasBSHa (cluster gasseri_1), amplified from genomic DNA; selectivity loop GVG with V211 in its centre; catalytic cysteine at position 2; Crystallised with taurine and with taurine plus CDCA; also called taurine-preferring BSH; bile salt hydrolase; source: E. coli BL21-G, purified (HisTrap HP, Superdex 200)
[3]
  stoichiometry N: 4
